The results in this text go back to US20100120665A1.

What all share (assay): cell-based or functional assay
The target in assay [1] is human complement factor D (human) (UniProt P00746).
The target of assay [2] is purified human factor B protein (Quidel, Catalog# A408) (human) (UniProt P00751).
Assay [3] deals with mouse factor B (endogenous, in diluted whole mouse serum) (mouse) (UniProt P04186).
Chain of UniProt P04186 (P04186 23-761): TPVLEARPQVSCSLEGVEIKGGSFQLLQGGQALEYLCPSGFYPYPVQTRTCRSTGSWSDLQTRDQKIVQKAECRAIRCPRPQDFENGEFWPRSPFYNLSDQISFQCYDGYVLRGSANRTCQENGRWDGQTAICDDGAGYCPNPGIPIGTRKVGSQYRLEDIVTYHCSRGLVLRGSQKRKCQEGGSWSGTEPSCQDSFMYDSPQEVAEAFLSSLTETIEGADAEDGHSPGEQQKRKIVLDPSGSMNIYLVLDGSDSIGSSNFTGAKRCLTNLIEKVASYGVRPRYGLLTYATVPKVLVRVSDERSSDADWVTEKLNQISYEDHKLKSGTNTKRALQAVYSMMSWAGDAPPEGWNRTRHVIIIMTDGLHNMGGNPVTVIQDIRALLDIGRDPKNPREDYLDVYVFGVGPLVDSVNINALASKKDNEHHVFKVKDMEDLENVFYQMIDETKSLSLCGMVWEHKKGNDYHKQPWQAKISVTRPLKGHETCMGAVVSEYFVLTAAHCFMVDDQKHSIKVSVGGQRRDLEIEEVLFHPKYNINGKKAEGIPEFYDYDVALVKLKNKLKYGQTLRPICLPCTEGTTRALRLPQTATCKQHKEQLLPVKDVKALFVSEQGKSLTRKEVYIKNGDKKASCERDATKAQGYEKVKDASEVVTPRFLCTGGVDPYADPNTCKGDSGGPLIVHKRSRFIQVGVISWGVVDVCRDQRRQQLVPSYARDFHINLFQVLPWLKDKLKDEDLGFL

Chain of UniProt P00746 (P00746 26-253 limits assumed): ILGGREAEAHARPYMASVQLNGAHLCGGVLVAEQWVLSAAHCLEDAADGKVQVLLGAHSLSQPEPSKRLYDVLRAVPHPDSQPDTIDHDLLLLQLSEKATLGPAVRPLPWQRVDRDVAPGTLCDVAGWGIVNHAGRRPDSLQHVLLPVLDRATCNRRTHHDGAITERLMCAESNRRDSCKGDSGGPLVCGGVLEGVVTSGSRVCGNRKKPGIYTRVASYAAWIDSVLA
Chain of UniProt P00751 (P00751 26-764): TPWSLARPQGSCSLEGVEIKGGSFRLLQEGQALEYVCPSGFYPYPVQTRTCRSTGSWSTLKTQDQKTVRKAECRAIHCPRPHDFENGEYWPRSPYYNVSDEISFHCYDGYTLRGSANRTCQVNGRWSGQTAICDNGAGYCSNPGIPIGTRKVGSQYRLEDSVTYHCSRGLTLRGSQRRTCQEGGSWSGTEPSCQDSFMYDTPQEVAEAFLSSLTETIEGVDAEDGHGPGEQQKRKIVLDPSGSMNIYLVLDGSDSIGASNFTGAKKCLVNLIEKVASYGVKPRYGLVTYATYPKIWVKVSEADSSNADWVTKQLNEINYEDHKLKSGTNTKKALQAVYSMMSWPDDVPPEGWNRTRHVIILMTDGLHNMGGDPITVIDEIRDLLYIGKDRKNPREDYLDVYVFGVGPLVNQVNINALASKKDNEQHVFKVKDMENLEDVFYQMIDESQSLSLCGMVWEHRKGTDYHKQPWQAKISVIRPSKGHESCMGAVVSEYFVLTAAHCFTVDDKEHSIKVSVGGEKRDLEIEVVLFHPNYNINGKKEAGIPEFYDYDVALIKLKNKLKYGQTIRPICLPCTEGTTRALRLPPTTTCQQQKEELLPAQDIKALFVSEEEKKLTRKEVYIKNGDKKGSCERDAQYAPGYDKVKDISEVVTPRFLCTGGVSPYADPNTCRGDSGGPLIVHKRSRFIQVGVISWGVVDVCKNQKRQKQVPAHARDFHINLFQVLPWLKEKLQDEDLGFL

With “isotype matched mouse control IgG (eBioscience, Catalog# 14-4732) (antibody)”, in assay [1], the hemolysis OD 405 nm; Control IgG 5 ng + Purified hfB protein 0.5 ug amounted to 0.428 OD 405 nm, the hemolysis OD 405 nm; Control IgG 10 ng + Purified hfB protein 0.5 ug turned out to be 0.361 OD 405 nm, the hemolysis OD 405 nm; Control IgG 20 ng + Purified hfB protein 0.5 ug came to 0.441 OD 405 nm and the hemolysis OD 405 nm; Control IgG 30 ng + Purified hfB protein 0.5 ug was 0.392 OD 405 nm. Also, in assay [1], the hemolysis OD 405 nm; Control IgG 40 ng + Purified hfB protein 0.5 ug came to 0.426 OD 405 nm, the hemolysis OD 405 nm; Control IgG 50 ng + Purified hfB protein 0.5 ug was determined as 0.43 OD 405 nm, the hemolysis OD 405 nm; Control IgG 60 ng + Purified hfB protein 0.5 ug came out at 0.416 OD 405 nm and the hemolysis OD 405 nm; Control IgG 70 ng + Purified hfB protein 0.5 ug stood at 0.395 OD 405 nm. In assay [1], the hemolysis OD 405 nm; Control IgG 80 ng + Purified hfB protein 0.5 ug came out at 0.387 OD 405 nm, the hemolysis OD 405 nm; Control IgG 90 ng + Purified hfB protein 0.5 ug worked out at 0.347 OD 405 nm, the hemolysis OD 405 nm; Control IgG 100 ng + Purified hfB protein 0.5 ug came out at 0.397 OD 405 nm and the hemolysis OD 405 nm; Control IgG 150 ng + Purified hfB protein 0.5 ug stood at 0.426 OD 405 nm. Moreover, in assay [1], the hemolysis OD 405 nm; Control IgG 200 ng + Purified hfB protein 0.5 ug is 0.347 OD 405 nm, the hemolysis OD 405 nm; Control IgG 400 ng + Purified hfB protein 0.5 ug worked out at 0.506 OD 405 nm, the hemolysis OD 405 nm; Control IgG 800 ng + Purified hfB protein 0.5 ug was 0.538 OD 405 nm and the hemolysis OD 405 nm; Control IgG 1600 ng + Purified hfB protein 0.5 ug was 0.618 OD 405 nm. In assay [1], the hemolysis OD 405 nm; Control IgG 2400 ng + Purified hfB protein 0.5 ug amounted to 0.588 OD 405 nm.
Take “monoclonal anti-human factor D antibody (Affinity Bioreagents, Catalog# GAU008-01-02)”: in assay [1], the hemolysis OD 405 nm; Anti-hfD mAb 5 ng + Purified hfB protein 0.5 ug came out at 0.373 OD 405 nm, the hemolysis OD 405 nm; Anti-hfD mAb 10 ng + Purified hfB protein 0.5 ug is 0.432 OD 405 nm, the hemolysis OD 405 nm; Anti-hfD mAb 20 ng + Purified hfB protein 0.5 ug was 0.369 OD 405 nm and the hemolysis OD 405 nm; Anti-hfD mAb 30 ng + Purified hfB protein 0.5 ug turned out to be 0.235 OD 405 nm. For the same substance, in assay [1], the hemolysis OD 405 nm; Anti-hfD mAb 40 ng + Purified hfB protein 0.5 ug turned out to be 0.227 OD 405 nm, the hemolysis OD 405 nm; Anti-hfD mAb 50 ng + Purified hfB protein 0.5 ug came to 0.165 OD 405 nm, the hemolysis OD 405 nm; Anti-hfD mAb 60 ng + Purified hfB protein 0.5 ug came out at 0.126 OD 405 nm and the hemolysis OD 405 nm; Anti-hfD mAb 70 ng + Purified hfB protein 0.5 ug stood at 0.103 OD 405 nm. For the same substance, in assay [1], the hemolysis OD 405 nm; Anti-hfD mAb 80 ng + Purified hfB protein 0.5 ug was 0.078 OD 405 nm, the hemolysis OD 405 nm; Anti-hfD mAb 90 ng + Purified hfB protein 0.5 ug turned out to be 0.058 OD 405 nm, the hemolysis OD 405 nm; Anti-hfD mAb 100 ng + Purified hfB protein 0.5 ug was 0.061 OD 405 nm and the hemolysis OD 405 nm; Anti-hfD mAb 150 ng + Purified hfB protein 0.5 ug came to 0.035 OD 405 nm. In addition, in assay [1], the hemolysis OD 405 nm; Anti-hfD mAb 200 ng + Purified hfB protein 0.5 ug amounted to 0.029 OD 405 nm, the hemolysis OD 405 nm; Anti-hfD mAb 400 ng + Purified hfB protein 0.5 ug was 0.022 OD 405 nm, the hemolysis OD 405 nm; Anti-hfD mAb 800 ng + Purified hfB protein 0.5 ug was found to be 0.015 OD 405 nm and the hemolysis OD 405 nm; Anti-hfD mAb 1600 ng + Purified hfB protein 0.5 ug amounted to 0.014 OD 405 nm. Besides, in assay [1], the hemolysis OD 405 nm; Anti-hfD mAb 2400 ng + Purified hfB protein 0.5 ug worked out at 0.049 OD 405 nm.
In the case of “mouse monoclonal antibody against human factor B (Quidel, Catalog# A227)”, in assay [2], the hemolysis OD 405 nm; Anti hfB mAb 0.4 ug + Purified hfB Protein 0.5 ug stood at 0.051 OD 405 nm and the hemolysis OD 405 nm; Anti hfB mAb 0.8 ug + Purified hfB Protein 0.5 ug was determined as 0 OD 405 nm. Moreover, the hemolysis OD 405 nm; Anti hfB mAb 0.4 ug + Mouse serum 50 ul (1:6 Diluted) in assay [3] was 0.074 OD 405 nm.
